Km data for one protein are collected here from patent publication US4614714A.

Substrate in the series: N[C@@H](CC(=O)O)C(=O)O
Description: purified protein, by the assay type. The note with it: other: pH 7.4, 30.0 °C.
Description: The concentration of each substrate was 10 mM, and the reactions were carried out at pH 7.4 (0.1 M potassium phosphate buffer) and pH 6.0 (0.1 M acetate buffer).
That is, 1 ml of 0.1 M potassium phosphate buffer (pH 7.4) containing 10 mM sodium L-glutamate was charged into an oxygen electrode cell and 10 μl of an enzyme solution was added thereto to measure the oxygen consumption rate. One unit of enzyme was determined as the amount of enzyme which consumes 1μ mol of oxygen per minute at 30° C. in the absence of catalase (unit: hereinafter abbreviated as "U").

B1: novel L-glutamic acid oxidase (Streptomyces sp.) (protein)
chain 1: ANEMTYEQLARELLLVGPAPTNEDLKLRYLDVLIDNGLNPPGPPKRILIVGAGIAGLVAGDLLTRAGHDVTILEANANRVGGRIKTFHAKKGEPSPFADPAQYAEAGAMRLPSFHPLTLALIDKLGLKRRLFFNVDIDPQTGNQDAPVPPVFYKSFKDGKTWTNGAPSPEFKEPDKRNHTWIRTNREQVRRAQYATDPSSINEGFHLTGCETRLTVSDMVNQALEPVRDYYSVKQDDGTRVNKPFKEWLAGWADVVRDFDGYSMGRFLREYAEFSDEAVEAIGTIENMTSRLHLAFFHSFLGRSDIDPRATYWEIEGGSRMLPETLAKDLRDQIVMGQRMVRLEYYDPGRDGHHGELTGPGGPAVAIQTVPEGEPY
chain 2: AATQTWTGDLAIVTIPFSSLRFVKVTPPFSYKKRRAVIETHYDQATKVLLEFSRRWWEFTEADWKRELDAIAPGLYDYYQQWGEDDAEAALALPQSVRNLPTGLLGAHPSVDESRIGEEQVEYYRNSELR
chain 3: GGVRPATNAYGGGSTTDNPNRFMYYPSHPVPGTQGGVVLAAYSWSDDAARWDSFDDAERYGYALENLQSVHGRRIEVFYTGAGQTQSWLRDPYACGEAAVYTPHQMTAFHLDVVRPEGPVYFAGEHVSLKHAWIEGAVETAVRAAIAVNEAPVGDTGVTAAAGRRGAAAATEPMREEALTS
Regarding B1, the Michaelis-Menten constant (Km) worked out at 0.029 M.

One may read the Km as the substrate concentration at which the rate is half of its maximum.
